Measured values taken from patent publication US20210179666A1 (REGENTS OF THE UNIVERSITY OF MINNESOTA, published 2021).
Like-named read-outs stand apart in the source and are kept apart here. Blank lines part the entries; values can stand above or below the binder they belong to. Numbered stars: 1 amine (or outer) side, 2 acyl side, 3 side chain; on linkers, the order of the positions; unused ones are H or OH. Square brackets hold non-standard residues; d marks the D form. N(2-Aminoethyl)Gly = O=C(CN(CCN[*:3])[*:1])[*:2]; Gly(N-(CH2)3-guanidino) = N=C(N)NCCCNCC(=O)O; Nphe = O=C(O)CNCc1ccccc1; Dap = NC[C@H](N)C(=O)O; Sar = CNCC(=O)O

Tests used:
[1] = target: T1, mouse melanocortin 5 receptor (mouse, UniProt P41149 1-325); assay: cell-based or functional assay
T1 sequence (P41149 whole entry): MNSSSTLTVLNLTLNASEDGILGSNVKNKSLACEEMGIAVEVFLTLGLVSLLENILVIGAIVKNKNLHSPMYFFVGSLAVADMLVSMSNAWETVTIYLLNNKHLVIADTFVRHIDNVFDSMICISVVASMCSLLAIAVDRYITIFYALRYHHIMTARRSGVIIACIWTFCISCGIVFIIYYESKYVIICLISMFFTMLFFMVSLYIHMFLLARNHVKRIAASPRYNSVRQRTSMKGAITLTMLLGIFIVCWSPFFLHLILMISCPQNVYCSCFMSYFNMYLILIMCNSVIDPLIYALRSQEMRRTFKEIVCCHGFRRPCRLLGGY

[2] = target: T2, mouse melanocortin 1 receptor (mouse, UniProt Q01727 1-315); assay: cell-based or functional assay
T2 sequence (Q01727 whole entry): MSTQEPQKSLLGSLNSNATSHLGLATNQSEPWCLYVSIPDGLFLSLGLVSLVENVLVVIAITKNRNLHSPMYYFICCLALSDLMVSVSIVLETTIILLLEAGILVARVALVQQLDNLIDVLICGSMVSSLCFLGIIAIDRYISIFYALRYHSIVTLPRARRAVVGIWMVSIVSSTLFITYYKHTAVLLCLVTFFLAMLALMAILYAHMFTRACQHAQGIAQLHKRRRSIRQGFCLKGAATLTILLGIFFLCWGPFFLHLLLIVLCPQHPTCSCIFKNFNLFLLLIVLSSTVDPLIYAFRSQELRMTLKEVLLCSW

[3] = target: T3, mouse melanocortin 3 receptor (mouse, UniProt P33033 1-323); assay: cell-based or functional assay
T3 sequence (P33033 whole entry): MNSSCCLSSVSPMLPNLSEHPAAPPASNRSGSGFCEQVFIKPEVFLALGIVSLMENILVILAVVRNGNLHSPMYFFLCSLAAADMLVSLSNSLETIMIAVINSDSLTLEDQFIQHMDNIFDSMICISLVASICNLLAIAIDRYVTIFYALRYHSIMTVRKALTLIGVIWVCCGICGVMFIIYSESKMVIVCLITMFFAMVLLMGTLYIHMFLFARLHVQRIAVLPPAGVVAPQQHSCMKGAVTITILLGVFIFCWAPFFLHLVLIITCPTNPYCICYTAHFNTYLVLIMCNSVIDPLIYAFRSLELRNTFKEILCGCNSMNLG

[4] = target: T4, mouse melanocortin 4 receptor (mouse, UniProt P56450 1-332); assay: cell-based or functional assay
T4 sequence (P56450 whole entry): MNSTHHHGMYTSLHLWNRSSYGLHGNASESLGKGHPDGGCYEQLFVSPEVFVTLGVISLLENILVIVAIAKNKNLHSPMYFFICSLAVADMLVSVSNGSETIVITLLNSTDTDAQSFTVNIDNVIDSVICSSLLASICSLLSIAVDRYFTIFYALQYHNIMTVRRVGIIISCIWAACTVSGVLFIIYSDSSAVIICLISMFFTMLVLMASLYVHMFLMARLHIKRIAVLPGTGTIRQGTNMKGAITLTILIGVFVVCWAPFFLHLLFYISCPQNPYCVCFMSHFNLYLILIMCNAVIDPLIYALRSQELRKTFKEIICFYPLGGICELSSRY

[5] = target: T2, mouse melanocortin 1 receptor; assay: 125I-NDP-MSH competition, HEK293 cells
[6] = target: T4, mouse melanocortin 4 receptor; assay: 125I-NDP-MSH competition; fold vs SEQ ID NO: 1 control
[7] = target: T5, human melanocortin 4 receptor (human, UniProt P32245 1-332); assay: as above
T5 construct: whole, on cells; the assays used the receptor on HEK293 cells; also called hMC4R
T5 sequence (P32245 whole entry): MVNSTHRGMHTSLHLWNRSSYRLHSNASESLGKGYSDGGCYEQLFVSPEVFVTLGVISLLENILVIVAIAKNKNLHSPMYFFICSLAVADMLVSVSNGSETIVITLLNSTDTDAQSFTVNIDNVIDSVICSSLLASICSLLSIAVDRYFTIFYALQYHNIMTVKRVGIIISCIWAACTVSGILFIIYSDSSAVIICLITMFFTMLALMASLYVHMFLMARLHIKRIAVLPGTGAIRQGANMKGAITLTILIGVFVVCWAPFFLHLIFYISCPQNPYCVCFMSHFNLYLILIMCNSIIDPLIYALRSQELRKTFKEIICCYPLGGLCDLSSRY

[8] = target: T4, mouse melanocortin 4 receptor; assay: cell-based or functional assay; remark: listed apart in the source
[9] = target: T2, mouse melanocortin 1 receptor; assay: cell-based or functional assay; remark: listed apart in the source
[10] = target: T3, mouse melanocortin 3 receptor; assay: cell-based or functional assay; remark: listed apart in the source
[11] = target: T5, human melanocortin 4 receptor; assay: cell-based or functional assay
[12] = target: T5, human melanocortin 4 receptor; assay: 125I-NDP-MSH competition, HEK293 cells
[13] = target: T4, mouse melanocortin 4 receptor; assay: 125I-NDP-MSH competition, HEK293 cells
[14] = target: T1, mouse melanocortin 5 receptor; assay: cell-based or functional assay; remark: listed apart in the source
[15] = target: T1, mouse melanocortin 5 receptor; assay: 125I-NDP-MSH competition, HEK293 cells
[16] = target: T5, human melanocortin 4 receptor; assay: 125I-NDP-MSH competition; fold vs SEQ ID NO: 2 control
[17] = target: T4, mouse melanocortin 4 receptor; assay: as above
[18] = target: T1, mouse melanocortin 5 receptor; assay: as above
[19] = target: T2, mouse melanocortin 1 receptor; assay: as above
[20] = target: T3, mouse melanocortin 3 receptor; assay: as above
[21] = target: T3, mouse melanocortin 3 receptor; assay: 125I-NDP-MSH competition, HEK293 cells

- Inverse Agonist, percent decrease from basal (cAMP) [1]: -10%
- EC50 (cAMP partial agonist) [2]: 2.7 µM
- Partial Agonist, percent of NDP-MSH (cAMP) [2]: 60%
- EC50 (cAMP agonist) [3]: > 100 µM
- pA2 (Schild analysis, agonist NDP-MSH, cAMP) [3]: 7.1
Binder: PRFFXAFP (head-to-tail cyclic; NPhe (N-benzylglycine) at 4; Dap at 5; DPro at 8) [MDE9-93c]

- pA2 (Schild analysis, agonist NDP-MSH, cAMP) [4]: 6.1
- EC50 (cAMP agonist) [1]: > 100 µM
- EC50 (cAMP agonist) [2]: > 100 µM
- EC50 (cAMP agonist) [3]: > 100 µM
- pA2 (Schild analysis, agonist NDP-MSH, cAMP) [3]: 5.6
Binder: PRFFXAFP (head-to-tail cyclic; Dap at 5; NAla (N-methylglycine) at 6; DPro at 8) [MDE8-108-6c]

- IC50 [5]: 9 µM
B1: 1 (MDE 6-82-3c) (peptide)
peptide: cyclo(PRFFNAF[dP])
modifications: also: assayed as TFA salt
notes: AgRP 111-116 loop cyclized through DPro-Pro; Asn5 parent scaffold; assayed as TFA salt; also called Compound 1; c[Pro-Arg-Phe-Phe-Asn-Ala-Phe-DPro]

- Fold Diff [6]: 100 fold
- Fold Diff [7]: 2000 fold
- EC50 (cAMP agonist) [8]: > 100 µM
- pA2 (Schild analysis, agonist NDP-MSH, cAMP) [8]: 6.1
- EC50 (cAMP agonist) [9]: > 100 µM
- EC50 (cAMP agonist) [10]: > 100 µM
- pA2 (Schild analysis, agonist NDP-MSH, cAMP) [10]: 5.8
- pA2 (Schild analysis, agonist NDP-MSH, cAMP) [11]: 6.5
- IC50 [12]: 14.3 µM
- IC50 [13]: 2 µM
B2: ZMK 2-110 (peptide)
peptide: cyclo(PRYFNAF[dP])
notes: Phe112Tyr SNP in the Asn scaffold; also called c[Pro-Arg-Tyr-Phe-Asn-Ala-Phe-DPro]

- Fold Diff [6]: 300 fold
- Fold Diff [7]: 300 fold
- EC50 (cAMP agonist) [8]: > 100 µM
- pA2 (Schild analysis, agonist NDP-MSH, cAMP) [8]: 5.3
- EC50 (cAMP agonist) [14]: > 100 µM
- percent maximal stimulatory response at 100 µM (cAMP) [9]: 23%
- EC50 (cAMP agonist) [10]: > 100 µM
- pA2 (Schild analysis, agonist NDP-MSH, cAMP) [10]: < 5
- pA2 (Schild analysis, agonist NDP-MSH, cAMP) [11]: 5.8
- IC50 [12]: 22 µM
- IC50 [13]: 6.7 µM
B3: ZMK 2-96 (peptide)
peptide: cyclo(PHFFNAF[dP])
notes: Arg111His SNP in the Asn scaffold; also called c[Pro-His-Phe-Phe-Asn-Ala-Phe-DPro]

- pA2 (Schild analysis, agonist NDP-MSH, cAMP) [4]: 8.4
- EC50 (cAMP partial agonist) [2]: 5.6 µM
- Partial Agonist, percent of NDP-MSH (cAMP) [2]: 70%
Binder: cyclo(PRF[Nphe]NAF[dP]) [MDE9-88c]

- pA2 (Schild analysis, agonist NDP-MSH, cAMP) [4]: < 5.5
- EC50 (cAMP agonist) [2]: 0.24 µM
Binder: cyclo(PR[Nphe]FNAF[dP]) [MDE9-77c]

- EC50 (cAMP agonist) [1]: > 100 µM
- EC50 (cAMP agonist) [2]: > 100 µM
- EC50 (cAMP agonist) [3]: > 100 µM
- pA2 (Schild analysis, agonist NDP-MSH, cAMP) [3]: 5.9
B4: MDE8-108-3c (peptide)
peptide: PRFFXAFP
modifications: head-to-tail cyclic; NArg (N-(3-guanidino-propyl)-glycine) at 2; Dap at 5; DPro at 8

- pA2 (Schild analysis, agonist NDP-MSH, cAMP) [4]: < 5.5
- percent maximal stimulatory response at 100 µM (cAMP) [2]: 85%
- percent maximal stimulatory response at 100 µM (cAMP) [3]: 60%
Binder: cyclo(PRFFNA[Nphe][dP]) [MDE7-26-5c]

- pA2 (Schild analysis, agonist NDP-MSH, cAMP) [4]: 6.6
- Inverse Agonist, percent decrease from basal (cAMP) [1]: -10%
- EC50 (cAMP agonist) [2]: > 100 µM
- EC50 (cAMP agonist) [3]: > 100 µM
Binder: PRFFXAFP (head-to-tail cyclic; Dap at 5; NPhe (N-benzylglycine) at 7; DPro at 8) [MDE8-108-7c]

- pA2 (Schild analysis, agonist NDP-MSH, cAMP) [4]: < 5.5
- EC50 (cAMP partial agonist) [2]: 3.1 µM
- Partial Agonist, percent of NDP-MSH (cAMP) [2]: 50%
B5: MDE7-26-1c (peptide)
peptide: cyclo(P[Gly(N-(CH2)3-guanidino)]FFNAF[dP])
SMILES: C[C@@H]1NC(=O)[C@H](CC(N)=O)NC(=O)[C@H](Cc2ccccc2)NC(=O)[C@H](Cc2ccccc2)NC(=O)CN(CCCNC(=N)N)C(=O)[C@@H]2CCCN2C(=O)[C@H]2CCCN2C(=O)[C@H](Cc2ccccc2)NC1=O

- EC50 (cAMP partial agonist) [1]: 0.55 µM
- Partial Agonist, percent of NDP-MSH (cAMP) [1]: 70%
- EC50 (cAMP partial agonist) [2]: 0.11 µM
- Partial Agonist, percent of NDP-MSH (cAMP) [2]: 80%
- EC50 (cAMP agonist) [3]: > 100 µM
- pA2 (Schild analysis, agonist NDP-MSH, cAMP) [3]: 6.9
Binder: PRFFXAFP (head-to-tail cyclic; NPhe (N-benzylglycine) at 3; Dap at 5; DPro at 8) [MDE9-32c]

- pA2 (Schild analysis, agonist NDP-MSH, cAMP) [4]: < 5.5
- EC50 (cAMP agonist) [2]: 1 µM
B6: MDE7-26-4c (peptide)
peptide: cyclo(PRFFN[Sar]F[dP])
SMILES: CN1CC(=O)N[C@@H](Cc2ccccc2)C(=O)N2CCC[C@@H]2C(=O)N2CCC[C@H]2C(=O)N[C@@H](CCCNC(=N)N)C(=O)N[C@@H](Cc2ccccc2)C(=O)N[C@@H](Cc2ccccc2)C(=O)N[C@@H](CC(N)=O)C1=O

- Inverse Agonist, percent decrease from basal (cAMP) [1]: -10%
- percent maximal stimulatory response at 100 µM (cAMP) [2]: 60%
- EC50 (cAMP agonist) [3]: > 100 µM
- pA2 (Schild analysis, agonist NDP-MSH, cAMP) [3]: 6.9
Binder: cyclo(PRFF[N(2-Aminoethyl)Gly]AF[dP]) [MDE9-111c]

- Inverse Agonist, percent decrease from basal (cAMP) [1]: -10%
- percent maximal stimulatory response at 100 µM (cAMP) [2]: 36%
- pA2 (Schild analysis, agonist NDP-MSH, cAMP) [3]: 6.5
- percent maximal stimulatory response at 100 µM (cAMP) [3]: 20%
- IC50 [15]: 1.7 µM
- IC50 [5]: 5.2 µM
B7: 2 (MDE 6-82-1c) (peptide)
peptide: PRFFXAFP
modifications: head-to-tail cyclic; Dap (diaminopropionic acid) at 5; DPro at 8
notes: Dap5 parent scaffold; assayed as TFA salt; also called Compound 2; c[Pro-Arg-Phe-Phe-Dap-Ala-Phe-DPro]

- EC50 (cAMP agonist) [8]: > 100 µM
- pA2 (Schild analysis, agonist NDP-MSH, cAMP) [8]: 6
- EC50 (cAMP agonist) [14]: > 100 µM
- percent maximal stimulatory response at 100 µM (cAMP) [9]: 56%
- EC50 (cAMP agonist) [10]: > 100 µM
- pA2 (Schild analysis, agonist NDP-MSH, cAMP) [10]: 5.4
- Fold Diff [16]: 400 fold
- pA2 (Schild analysis, agonist NDP-MSH, cAMP) [11]: 6.4
- Fold Diff [17]: 500 fold
- Fold Diff [18]: 7 fold
- Fold Diff [19]: 5 fold
- Fold Diff [20]: 5 fold
- IC50 [12]: 2.7 µM
- IC50 [13]: 1 µM
- IC50 [15]: 12 µM
- IC50 [5]: 25 µM
- IC50 [21]: 15 µM
B8: ZMK 2-99 (peptide)
peptide: cyclo(PHFF[Dap]AF[dP])
notes: Arg111His SNP in the Dap scaffold; also called c[Pro-His-Phe-Phe-Dap-Ala-Phe-DPro]

- EC50 (cAMP agonist) [8]: > 100 µM
- pA2 (Schild analysis, agonist NDP-MSH, cAMP) [8]: 7.3
- EC50 (cAMP agonist) [14]: > 100 µM
- pA2 (Schild analysis, agonist NDP-MSH, cAMP) [14]: 6.5
- percent maximal stimulatory response at 100 µM (cAMP) [9]: 48%
- EC50 (cAMP agonist) [10]: > 100 µM
- pA2 (Schild analysis, agonist NDP-MSH, cAMP) [10]: 6.5
- Fold Diff [16]: 100 fold
- pA2 (Schild analysis, agonist NDP-MSH, cAMP) [11]: 7.5
- Fold Diff [17]: 70 fold
- Fold Diff [18]: 20 fold
- Fold Diff [19]: 4 fold
- Fold Diff [20]: 9 fold
- IC50 [12]: 1.02 µM
- IC50 [13]: 0.134 µM
- IC50 [15]: 36 µM
- IC50 [5]: 18 µM
- IC50 [21]: 28 µM
B9: ZMK 2-112 (peptide)
peptide: cyclo(PRYF[Dap]AF[dP])
notes: Phe112Tyr SNP in the Dap scaffold; also called c[Pro-Arg-Tyr-Phe-Dap-Ala-Phe-DPro]

- percent maximal stimulatory response at 100 µM (cAMP) [8]: 37%
- EC50 (cAMP agonist) [14]: > 100 µM
- pA2 (Schild analysis, agonist NDP-MSH, cAMP) [14]: 6.3
- percent maximal stimulatory response at 100 µM (cAMP) [9]: 79%
- pA2 (Schild analysis, agonist NDP-MSH, cAMP) [10]: 6.1
- percent maximal stimulatory response at 100 µM (cAMP) [10]: 27%
- pA2 (Schild analysis, agonist NDP-MSH, cAMP) [11]: 7.6
- IC50 [12]: 0.0322 µM
- IC50 [15]: 2.7 µM
- IC50 [5]: 8 µM
- IC50 [21]: 10 µM
B10: ZMK 2-85 (peptide)
peptide: cyclo(PRFF[Dap]VF[dP])
notes: Ala115Val SNP in the Dap scaffold; also called c[Pro-Arg-Phe-Phe-Dap-Val-Phe-DPro]

- pA2 (Schild analysis, agonist NDP-MSH, cAMP) [8]: < 5
- percent maximal stimulatory response at 100 µM (cAMP) [8]: 42%
- EC50 (cAMP agonist) [14]: > 100 µM
- EC50 (cAMP agonist) [9]: 4 µM
- pA2 (Schild analysis, agonist NDP-MSH, cAMP) [10]: < 5
- percent maximal stimulatory response at 100 µM (cAMP) [10]: 29%
- Fold Diff [16]: 2100 fold
- pA2 (Schild analysis, agonist NDP-MSH, cAMP) [11]: < 5
- Fold Diff [17]: 5200 fold
- Fold Diff [19]: 6 fold
- Fold Diff [20]: 15 fold
- IC50 [12]: 15.7 µM
- IC50 [13]: 10 µM
- IC50 [5]: 33 µM
- IC50 [21]: 49 µM
B11: ZMK 3-20 (peptide)
peptide: cyclo(PCFF[Dap]AF[dP])
notes: Arg111Cys SNP in the Dap scaffold; also called c[Pro-Cys-Phe-Phe-Dap-Ala-Phe-DPro]
